Reference: patent US20080118978A1 (published 2008)
Substitutions are numbered along the chain they refer to. Blank lines part the entries; values can stand above or below the binder they belong to.

What was measured:
CD10 [1] = target: T1, CD10 (human, UniProt P08473 2-750); assay: flow cytometry on Raji and RTX/Raji cells, FITC anti-mouse IgG secondary
T1 construct: Endogenous CD10 of human cell lines: on Raji, RTX/Raji and Ramos cells in flow cytometry; In the ELISA it was a Triton X-100-dissolved membrane fraction of SBC-3 cells coated on the plate; also called CALLA; neutral endopeptidase
T1 sequence (P08473 2-750 limits assumed): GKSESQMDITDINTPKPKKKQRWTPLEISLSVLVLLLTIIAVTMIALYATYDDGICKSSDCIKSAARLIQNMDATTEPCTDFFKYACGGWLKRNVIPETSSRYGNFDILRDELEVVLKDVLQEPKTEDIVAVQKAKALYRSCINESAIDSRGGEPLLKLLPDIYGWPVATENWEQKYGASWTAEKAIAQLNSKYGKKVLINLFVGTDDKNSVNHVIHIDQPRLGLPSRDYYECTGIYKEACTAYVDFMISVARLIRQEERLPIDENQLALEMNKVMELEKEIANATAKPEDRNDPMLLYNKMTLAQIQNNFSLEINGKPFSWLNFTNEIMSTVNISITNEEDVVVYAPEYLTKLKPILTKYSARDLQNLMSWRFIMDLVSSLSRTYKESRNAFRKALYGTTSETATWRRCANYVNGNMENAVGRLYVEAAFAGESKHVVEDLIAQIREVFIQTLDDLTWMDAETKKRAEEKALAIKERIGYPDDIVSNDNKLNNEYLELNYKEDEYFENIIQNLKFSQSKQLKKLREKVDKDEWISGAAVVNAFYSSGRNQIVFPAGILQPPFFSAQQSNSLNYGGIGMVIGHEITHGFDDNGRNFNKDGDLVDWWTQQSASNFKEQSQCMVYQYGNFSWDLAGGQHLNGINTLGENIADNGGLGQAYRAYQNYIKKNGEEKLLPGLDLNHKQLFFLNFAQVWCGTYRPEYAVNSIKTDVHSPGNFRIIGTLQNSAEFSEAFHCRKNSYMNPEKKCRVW
Experimental: The supernatant liquid was removed, cell pellets were loosened and 10 μL of FcR blocking reagent (manufactured by Miltenyi Biotec) was added thereto. After the mixture was allowed to stand on ice for about 30 minutes, an FACS buffer was added thereto and washed by centrifugal separation (about 5000×g for 1 minutes at 4° C.) was repeated three times. An FACS buffer was added so as to give a cell density of 2×10⁷ cells/ml for suspension and each 50 μL thereof was aliquated into a tube. The FACS buffer (50 μL) was added to each tube to suspend and the primary antibody solution was added thereto in an amount of 2.5 μL per tube. With regard to the primary antibody solution, each of mouse anti-CD10 antibody NL-1 [Proc. Natl. Acad. Sci. USA, 79, 4386 (1982)], anti-CD20 antibody B1 (manufactured by Beckman Coulter), FITC-labeled anti-CD19 antibody J4.119 (manufactured by Beckman Coulter) and FITC-labeled anti-CD22 antibody SJ.10.1H11 (manufactured by Beckman Coulter) was used. […] It was filtered by a Nylon mesh and transferred to a test tube to prepare a sample to be measured. Expression of CD antigen on the cell surface was measured using a flow cytometer Epics Elite (manufactured by Beckman Coulter).

CD10 [2] = target: T1, CD10; assay: ELISA on plate-coated membrane fraction of CD10-expressing SBC-3 cells
Experimental: As to an antigen, a membrane fraction prepared from human lung small-cell tumor cell line SBC-3 cells (JCRB 0818) which highly express CD10 was used. The membrane fraction was suspended in 20 mM HEPES (pH 7.4) buffer containing 1 mM EDTA and 250 mM sucrose and cells were crushed using a homogenizer, then centrifugal separation was carried out at a low speed of 8,000×g so that granules in the cells and uncrushed cells were precipitated and removed and a centrifugal separation was carried out at a high speed of 80,000×g to separate the desired cell membrane. The separated membrane fraction was dissolved in PBS containing 0.1% of Triton-X 100 whereby protein was quantified, then made 10 μg/mL, dispensed at 50 μL/well into a 96-well plate for ELISA (manufactured by Gliner) and allowed to stand at 4° C. for one night for adsorption. After washing with PBS, 1% BSA-PBS was added in an amount of 100 μL/well and the reaction was carried out at room temperature for 1 hour to block the remaining active groups were blocked. […] After the reaction, each well was washed with Tween-PBS, a peroxidase-labeled goat anti-human IgG (H&L) antibody solution diluted 2,000-fold with 1% BSA-PBS was added as a secondary antibody solution in an amount of 50 μL/well and reaction was carried out at room temperature for 1 hour. After the reaction, washing was carried out with Tween-PBS, an ABTS substrate solution was added in an amount of 50 μL/well to develop color and OD415 was measured.

- binding result (CD10 [1]): binds
B1: mouse anti-CD10 antibody NL-1 (antibody, V domains shown)
VH: DVQLVESGGGLVQPGGSRKLSCAASGFTFSSFGMHWVRQAPEKGLEWVAYISGGSYTIYYADTVKGRFTISRDNPKNTLFLQMTSLRSEDTAMYYCASSYGNFWYFDVWGAGTTVTVSS
VL: EIVLTQSPALMAASPGEKVTIACSVSSSISSSNLHWYQQKSETSPKPWIYGTSNLASGVPVRFSGSGSGTSYFLTISSMEAEDAATYYCQQWSSYPLTFGGGTKLEIK
notes: Mouse hybridoma antibody; H chain cloned with a mouse Cgamma2a probe and L chain with a Ckappa probe; also called anti-CD10 mouse antibody NL-1

- binding result (CD10 [2]): binds
B2: anti-CD10 humanized antibody HV0LV9 MS705 (antibody, V domains shown)
VH: EVQLVESGGGVVQPGRSLRLSCAASGFTFSSFGMHWVRQAPGKGLEWVAYISGGSYTIYYADTVKGRFTISRDNSKNTLYLQMNSLRAEDTAVYYCARSYGNFWYFDVWGQGTTVTVSS
VL: DIVMTQSPDSLAVSLGERATIACSVSSSISSSNLHWYQQKPGQSPKPWIYGTSNLASGVPVRFSGSGSGTSYFLTISSLQAEDVATYYCQQWSSYPLTFGQGTKVEIKR
notes: also called HV0LV9 MS705 antibody; FERM BP-10099

- binding result (CD10 [2]): binds
B3: anti-CD10 humanized antibody HV2LV9 MS705 (antibody, V domains shown)
VH: B2 VH with G42E, R98S
VL: B2 VL
notes: also called HV2LV9 MS705 antibody

- binding result (CD10 [2]): binds
B4: anti-CD10 humanized antibody HV0LV0 MS705 (antibody, V domains shown)
VH: B2 VH
VL: B2 VL with A22N, S44P, P47L, W48L, V61D, S71D, Y72F, F73T, T86V
notes: also called HV0LV0 MS705 antibody
